According to US8209131B2, “Therapeutic heparins and their binding to interleukins 4 and 5 and PECAM-1” (Curtin University of Technology, priority 2004, dated 2012):

What was measured:
[1] = system: TF1.8 cells; assay: TF1.8 bioassay of IL-4 mutants (support of proliferation); assay type: cell-based, human; conditions: IL-4 wt and mutants, TF1.8 cells
Protocol: TF-1.8 cells have been transfected with the firefly luciferase gene contained in the expression vector, pPGK-puromycin-luciferase (Coombe et al., 1998, Supra). The positive transfectants are cloned to produce a line with good luciferase expression. The proliferation assays are carried out in 96-well microplates suitable for such assays Falcon). The wells are flat bottomed, with white sides and a clear bottom. Cells are washed to remove any cytokine in the growth medium and then resuspended in RPMI/5% w/v FCS. The cells are counted with a Coulter Multisizer (Coulter Electronics, England) and routinely 2.5×10^4 cells are added to microplate wells that contain either no IL-4 (negative control) or various dilutions of IL-4. When the effect of HLGAGs, chondroitin sulfate C, or the heparin fractions of a particular length, or heparin fragments of a particular length and structure is to be measured, the wells also contain various concentrations of these molecules.
The cells proliferate for 48 hours at 37° C. in a humidified atmosphere, after which the luciferase activity is measured by the addition of 50 μl of luciferase substrate buffer (50 mm Tris-HCl, pH 7.8, 15 mM MgSO4, 33.3 mM DTT, 0.1 mM EDTA, 0.5 mM Na-luciferin, 0.5 mM ATP, 0.25 mM lithium Co A and 0.5% v/v Triton X-100). Immediately after the addition of the luciferase buffer the plate is assayed for luciferase activity. Light emissions are detected on a Victor 1420 Multilabel counter (Wallac, Turku, Finland).
IL-4 mutants were compared with WT for their ability to support the proliferation of TF1.8 cells. Titration curves were performed for each of the mutants and the concentration needed to support 50% of cell growth was determined.

[2] = BIAcore binding of proteins to heparin immobilised on a biosensor chip; conditions: IL-4 WT and mutants binding to heparin
Text: This technology uses the optical phenomenon of surface plasmon resonance to monitor physical interactions between molecules. Passing the protein solution over a sensor surface to which the ligand is coupled monitors the real-time binding of proteins to an immobilized ligand. Detection is achieved by measuring refractive index changes very close to the sensor surface. When the refractive index is altered, the angle at which plasmon resonance occurs changes and this change directly correlates with the amount of protein interacting with the surface. A BIAcore 2000 is conveniently used. It is very sensitive and its microfluidics ensures that only small amounts of material are required.
The HLGAGs are immobilized on the biosensor chip. Intact HLGAGs are biotinylated via amino groups, or reducing termini modified with ammonia by reductive amination, using sulfo-NHS-biotin. Biotinylated HLGAGs are immobilized on streptavidin-coupled sensor chips. Solutions containing proteins of interest are injected over the sensor chip surface, and the binding is measured in real time (Fernig, In: Proteoglycan protocols, Ed. R.V. Iozzo, Humana Press, Totowa, N.J., USA, 2001). […] In all cases binding is specific, as there is little or no interaction with sensor chips lacking heparin with any of the targeted proteins, and binding is inhibited by exogenous heparin. Initial analyzes indicate that the binding of rhIL-5 to heparin has affinity constants of the order from 50-5×10^−9. Because unsubstituted amines are variably present in heparan sulfates from different tissues, an alternative method of biotin labeling is recommended for the heparan sulfate chip. In this case, heparan sulfate is labeled via oxidized cis-diol residues using biotinyl-LC-hydrazine. […]
Binding experiments with these proteins has indicated to which PECAM-1 domains heparin binds. Two binding assays were used: the assay where PECAM-1 is reacted with a BIAcore biosensor chip to which heparin has been immobilised and the second assay is the binding of PECAM-1 to heparan sulfate on the cell surface.
Site directed mutagenesis was performed on IL-4. Basic residues within the proposed heparin binding site were changed to alanine and the proteins expressed using the baculovirus expression system. The one exception was R88 which was changed to valine. Insect cell expressed proteins were purified on an anti-IL-4 affinity column and checked for purity by SDS-PAGE and silver staining. Mutant IL-4 proteins were examined for their ability to bind heparin immobilised on a biosensor chip and binding assessed using a BIAcore 2000.

B1: K21A: IL-4 mutant, baculovirus expressed (protein)
chain: HKCDITLQEIIKTLNSLTEQATLCTELTVTDIFAASKNTTEKETFCRAATVLRQFYSHHEKDTRCLGATAQQFHRHKQLIRFLKRLDRNLWGLAGLNSCPVKEANQSTLENFLERLKTIMREKYSKCSS
[1]
  Conc needed for 50% growth, average: 1.36 ng/mL
[2]; in M-1s-1 (unit assumed)
  ka: 4.86E+04
[2]; in s-1 (unit assumed)
  kd: 2.53E−03
[2]; read-out: KD
  Kd: 52.1 nM
